Laboratory results: patent US20240287489A1, “CHITINOLYTIC ENZYME-BASED PLANT PROTECTION AGENTS” (GLOBACHEM NV, priority 2021, published 2024)

B1: Chitinase 1: chitinolytic enzyme from P. orarium, SEQ ID NO: 1, recombinant with PelB signal peptide and 6×His tag; run 19 = 2 μM alone (protein, listed as Photobacterium orarium)
chain: MAAPGTPQIAWMETDYAIVEVDQAASAYKSLITVKPAAEVPVAWQRYSGETADLWKVKLNGNVVFEQSIAPASSGAGSTTLSVAQGGQYAMTVELCSGTGAAQACTSSAATNIVVADTDGSHLDPLPMNVDANNGNYTTPANTVVGAYFVEWGVYGRKFSVDNIPAQNLTHILYGFIPICGPNESLGEIENGNSLAALNRACQGTPDYEVVIHDPWAAVQMPQPQSGHTHSTPYKGTYGQMMALKQRYPDLKIVPSVGGWTLSDPFYSFTDKAKRDIFVASVKKFLKTWKFFDGVDIDWEFPGGKGANANLGDPVNDGPAYVALMRELRVMLDELEAETGRQYELTSAIGVGYDKIDVVNYADAVQYMDYIFAMTYDFFGGWNNVPGHQTALFCGSHMSADVCNGTGVDENGVPRQGPAYTAAHGIDRLLAQGVPANKLVLGTAMYARGWTGVTEASMTDPTNPMTGTGNGMVPGSWEPGVIDYKDVVTDYINNAAVTKGYDAQAEAPWAYNPSNGNLITYDDRRSVLAKGQYVRNLGLAGLFAWEIDADNGDILNAMQDSLAGGGGNYAPVAKAGADQVVNGAASVTLDGSASSDRDGQIVSYQWTQTSGPALTLTGSDTATATVAVPEVTADTQYAFTLTVTDNAGDTATDSVTVTAKAPGSNTAPVVAVSGPATASAGDTVVLDASQSSDADGDTLTFTWTVPAGVNATVNGATVSFVADSYTVDTPLNFTVAVSDGTDSVTESVTVTVLKDGGSTGCTNAWATGGVYNSGDIVTHSGKSWKAKWWTTGEEPGTTGEWGVWEDLGAANCQIE
modifications: PelB signal peptide; 6xHis tag; Chitinase 1
notes: run 19 = 2 μM alone
B2: Chitinase 5: chitinolytic enzyme from P. orarium, SEQ ID NO: 5, recombinant with PelB signal peptide and 6×His tag (protein, listed as Photobacterium orarium)
chain: MAMGWSQININGVQKWEEAYSLNVDAANEIITIGAADTAGALYASQSLLQLVDGNKVPEVQITDAPRFAYRGFSVDAVRNFRTKDAIIQLLDQMAAFKLNKLHLRLADDEGWRIEIAGLPELTDVGATRCHDPEEKACILPFLGAGPDGSPESNGYYTATDYQDILSHAAALNIEVVPEIDIPGHAHAAIKAMEARYDHYAAQGNMAEANKYLLTDFNDTTQYLSVQMFTDNAINVCMESSYNFVDAVVSGLVSLHQGVQPLKTFHFGGDEIAGAWINSPACQDFIANNTDGVHSVSDLSRYFVERISVITANYGLDMAGWEDGLMHDGQVYPRSQMANNQLWGNAWQNIWEWGVADRAYNLANNDYKVVYNHATHLYFDHPYEPDPNERGYYWAPRFTDTRKTFGFMPDDVFANADFTRAGAPITKAEVVASAGVKKLLKPENVLGLQGSLWAEAVRTEDQFEGMIFPRVLGLAERAWHTATWEANDNAGIALDETGRNADYNHFANLLGQKVLPKLEQAGIAFNLPVPGGVIENGVLQANSTFPGLTIEYSTDQGTSWQSYDHLNPPAVAAGVQLRTVSGQRTSRVTTVNIE
modifications: PelB signal peptide; 6xHis tag; Chitinase 5

How the values were obtained:
[1] = Enzyme kinetics on chitin powder (Michaelis-Menten non-linear fit); format: biochemical; conditions: 2 μM enzyme, 0-150 mg/ml chitin powder
Procedure: Enzyme kinetics were determined using chitin powder as a substrate and the optimum enzyme to substrate ratio could be determined as well as Vmax and Km values. The concentrations of chitin powder varied
from 0 mg/ml up to 150 mg/ml while amount of enzyme was kept constant (2 μM). The initial velocities (V0) versus substrate concentration ([S]) were plotted as Lineweaver-Burk and Michaelis-Menten curves using GraphPad software (FIG. 7).
Maximum reaction velocities (Vmax) and Michaelis-Menten constants (Km) were determined using a non-linear fit Michaelis-Menten model (Table 4.6). Thereby, optimum enzyme-substrate ratios were determined that would allow a maximization of substrate conversion rates. Furthermore, the Km indicated the reciprocal enzyme-substrate affinity for C1-C5. Higher Km values reflect an overall lower affinity and thus reduced conversion efficiencies. […] In comparison, higher Km values for C2 and C5 reflected an overall lower affinity to insoluble chitin.
(§1) Enzyme samples were incubated at different temperature (10-60° C., 10° C. increment) and pH (4-11, increment 1) using different buffer systems (Acetate, Tris-HCl, MES, total molar concentration 100 mM), as well as NaCl content (0, 1. 2.5, 5, 10 and 20% w/v) to determine optimum reaction conditions. All experiments were carried out at 1.0 ml scale using 2 μM of the respective enzymes and a 5% (wv) suspension of chitin powder extracted from shrimp shells (˜400.000 g/mol; Carl, Roth) in 100 mM MAT buffer. For the determination of the substrate specificity, chitin powder (5% w/v), glycol chitin (10% v/v), colloidal chitin (5% w/v), chitosan [DA 15-25%, medium molecular weight, Sigma-Aldrich] (5% w/v) and microcrystalline cellulose powder (Sigma Aldrich) (5% w/v) were investigated, respectively. The effect of several potential co-factors on activity was elucidated at a concentration of 1 mM. Additionally, the effect of detergents [SDS 0.5% (w/v), Tween-20 and Triton X-100 both at 0.5% (v/v)] and chemicals (Imidazole 100 mM, EDTA 1 mM) on enzymatic activity was assessed. Samples were incubated in a thermomixer for 16 h at 900 rpm. After incubation, samples were analyzed using the enzyme assay. Thermostability was assessed after incubation of recombinant chitinases at 60° C. for different durations followed by the quantification of residual enzyme activity under standard assay conditions.

[2] = Substrate conversion yield from residue substrate after the reaction; format: biochemical; conditions: residue substrate after the reaction relative to the starting material
Procedure: The overall substrate conversion yield was determined for all maximized solutions after determining the residue substrate after the reaction, relative to the starting material.

[3] = Substrate specificity, reducing end assay; format: biochemical; conditions: in % activity of chitin powder; 16 h at optimum conditions, 50 mg/ml substrate
Procedure: (§2) Different chitinous substrates were tested to assess the substrate affinity of the novel chitinases relative to untreated chitin powder. […] As expected, the conversion of colloidal chitin is more efficient compared to chitin powder as it provides an overall smaller particle size and thereby larger surface area. Chitosan powder (degree of acetylation: 15%) was also degraded efficiently and high chitosanase activity was observed especially for C1, C3, C4 and C5. Merely basal activity was detected when cellulose was utilized as a substrate for all enzymes.
as §1

[4] = Substrate specificity, reducing end assay; format: biochemical; conditions: in % activity of chitin powder; 16 h at optimum conditions, 50 mg/ml substrate; remark: listed apart in the source
Procedure: as §2
The preparation of colloidal chitin was similar to the method described by Murthy and Bleakley with some minor differences [Murthy et al., Microbiol., 2012. 10(2): p. 1-5.]. Chitin powder (Carl Roth) was dissolved in concentrated hydrochloric acid (HCl) (5 g in 100 mL) and stirred at 4° C. for 24 h, after which the mixture was centrifuged at 4000×g for 15 min at 4° C. The precipitate was washed to neutral pH with distilled water and stored at 4° C.
as §1

[5] = Temperature, pH and NaCl optima and temperature stability of recombinant chitinases (reducing end assay); format: biochemical; conditions: for Optimum pH: 30° C., pH 4-11; for Optimum salinity: 0-20% w/v NaCl
Procedure: All enzymes were first characterized regarding their temperature and pH-optima as well as the optimum NaCl content as the enzymes were isolated from a sea-water microorganism. As the future intention is to integrate these novel enzymes in a degradation processes of natural chitin, all parameters were determined using chitin powder as a substrate instead of pre-treated analogs such as colloidal chitin, glycol chitin or artificial fluorogenic substrates. […] (FIG. 5A). Next, enzyme temperature stability was investigated (FIG. 51). […] Enzyme C1 retained a 50% residual activity after 240 min incubation at 60° C., while the activity of the other chitinases dropped below 50% after 15 min and remained on that level.
Given the marine origin of the P. orarium strain, the effect of salt was also evaluated, testing the addition of NaCl to the standard buffer. […] Increasing NaCl amounts up to 20% (w/v) reduced enzyme activity substantially to 10% for C2, 4 and 5, with C1 and C3 showing highest tolerance (65% activity).
For the determination of enzymatic activity of recombinant chitinases, a reducing end assay was carried out [Svein et al., Carbohydr Polym, 2004. 56(1): p. 35-39.]. Fractions containing chitinases were incubated with 5% (w/v) chitin powder extracted from shrimp shells (˜400.000 g/mol; Carl Roth) in MAT buffer for 2 h in an overhead shaker at ambient temperature (standard conditions). Samples were centrifuged at 13000×g for 2 min and 40 μl of the supernatant was mixed with 40 μl 0.5 M NaOH and 40 μL of a reagent containing 1.5 mg/ml 3-Methyl-2-benzothiazolinonhydrazon and 0.75 mg/ml Dithiothreitol. Samples were incubated at 80° C. for 15 min and then thoroughly mixed with 80 μl of 0.5% (w/v) FeNH4(SO4)2)×12H2O, 0.5% (w/v) sulfamic acid and 0.25 M HCl. After cooling down to room temperature, 100 μl of the samples were measured at 620 nm. A calibration curve of N-acetyl-glucosamine was constructed freshly for each measuring cycle. One unit [U] was defined as the amount of enzyme required to release 1 μmol of reducing sugars per hour.
as §1

Fusarium culmorum = format: in vivo; conditions: wheat, foliar application 3 dps, F. culmorum added 4 dps

| Molecule | Km (enzyme-substrate affinity) [1] | Vmax (maximum reaction velocity) [1] | substrate conversion yield [2] | Relative activity, Cellulose [3] | Relative activity, Chitin [3] | Relative activity, Chitosan [3] | Relative activity, Colloidal chitin [4] | residual activity ([5]; after 240 min incubation at 60° C.) | Optimum pH ([5]; chitin powder) | Optimum salinity ([5]; chitin powder, pH 8, 30° C.) | Optimum temperature ([5]; chitin powder, pH 8, range 10-60° C.) | fungal growth in germination test (Fusarium culmorum) | plant health in germination test (Fusarium culmorum; compared to the control) | enzyme activity (relative) ([5]; 20% (w/v) NaCl, pH 8, 30° C.) | Optimum pH ([5]; chitin powder, listed as C5) |
| --- | --- | --- | --- | --- | --- | --- | --- | --- | --- | --- | --- | --- | --- | --- | --- |
| B1 | 9.1 mg/mL | 197.7 U/ml | 18.3±0.5% | 14.3 ± 5.7% | 100% | 117.1 ± 9.1% | 159.9 ± 4.8% | 50% | 8 | 1 % NaCl | 30 °C | strong inhibition of fungal growth | improved plant health | – | – |
| B2 | 36.0 mg/mL | 89.5 U/ml | – | 11.2 ± 1.1% | 100% | 117.8 ± 1.7% | 164.1 ± 2.8% | – | – | 0 % NaCl | – | – | – | 10% | 9 |
